Conditions: Cereibacter sphaeroides, pH 7.4, 23 °C, Urea, Fluorescence, whole UniProt chain shown

B1: Thioredoxin wild type, P08058 (protein)
chain: MSTVPVTDATFDTEVRKSDVPVVVDFWAEWCGPCRQIGPALEELSKEYAGKVKIVKVNVDENPESPAMLGVRGIPALFLFKNGQVVSNKVGAAPKAALATWIASAL
Question: What does the source list for B1?
Answer: unfolding free energy (Potassium phosphate 20 mM): 8.2 kcal/mol; unfolding free energy (Potassium phosphate 20mM): 8.13 kcal/mol
